Data from patent publication US20240343823A1 (Ablynx, published 2024).

B1: A022600427 (other)
chain: DVQLVESGGGVVQPGGSLRLSCVASGYVHKINFYGWYRQAPGKEREKVAHISIGDQTDYADSAKGRFTISRDESKNTVYLQMNSLRPEDTAAYYCRALSRIWPYDYWGQGTLVTVSSGGGGSEVQLVESGGGVVQPGGSLRLSCAASGFTFSSFAMTWVRRPPGKGLEWVATITNAGVTSYADSVKGRFTISRDNAKNTLYLQMNSLRPEDTALYICANARRTGPRAPTDIGSYRGQGTLVTVSSGGGGSGGGSEVQLVESGGGVVQPGGSLRLSCAASGSIFRSVFSSSTMEWYRQAPGKKRELVARIAPGEGTYYGALYADSVKGRFTISRDNAKNTVYLQMNSLRPEDTALYYCASGVAWGQGTLVTVSSGGGGSGGGSEVQLVESGGGVVQPGGSLRLSCAASGFTFRSFGMSWVRQAPGKGPEWVSSISGSGSDTLYADSVKGRFTISRDNSKNTLYLQMNSLRPEDTALYYCTIGGSLSRSSQGTLVTVSSA
B2: A022600425 (other)
chain: DVQLVESGGGVVQPGGSLRLSCVASGYVHKINFYGWYRQAPGKEREKVAHISIGDQTDYADSAKGRFTISRDESKNTVYLQMNSLRPEDTAAYYCRALSRIWPYDYWGQGTLVTVSSGGGGSEVQLVESGGGVVQPGGSLRLSCAASGSIFRSVFSSSTMEWYRQAPGKKRELVARIAPGEGTYYGALYADSVKGRFTISRDNAKNTVYLQMNSLRPEDTALYYCASGVAWGQGTLVTVSSGGGGSGGGGSGGGGSGGGGSEVQLVESGGGVVQPGGSLRLSCAASGFTFSSFAMTWVRRPPGKGLEWVATITNAGVTSYADSVKGRFTISRDNAKNTLYLQMNSLRPEDTALYICANARRTGPRAPTDIGSYRGQGTLVTVSSGGGGSGGGSEVQLVESGGGVVQPGGSLRLSCAASGFTFRSFGMSWVRQAPGKGPEWVSSISGSGSDTLYADSVKGRFTISRDNSKNTLYLQMNSLRPEDTALYYCTIGGSLSRSSQGTLVTVSSA
B3: A022600179 (other)
chain: DVQLVESGGGVVQPGGSLRLSCVASGYVHKINFYGWYRQAPGKEREKVAHISIGDQTDYADSAKGRFTISRDESKNTVYLQMNSLRPEDTAAYYCRALSRIWPYDYWGQGTLVTVSSGGGGSEVQLVESGGGLVQPGGSLRLSCVASGFTFSSFAMTWVRRPPGKGLEWVATITNGGVTSYRDSVKGRFTISRDNAKNTLYLEMTSLNPEDTAVYICANARRTGPRAPTDIGSYRGQGTLVTVSSGGGGSGGGSEVQLVESGGGVVQPGGSLRLSCAASGFTFRSFGMSWVRQAPGKGPEWVSSISGSGSDTLYADSVKGRFTISRDNSKNTLYLQMNSLRPEDTALYYCTIGGSLSRSSQGTLVTVSSA
B4: A022600170 (other)
chain: DVQLVESGGGVVQPGGSLRLSCVASGYVHKINFYGWYRQAPGKEREKVAHISIGDQTDYADSAKGRFTISRDESKNTVYLQMNSLRPEDTAAYYCRALSRIWPYDYWGQGTLVTVSSGGGGSEVQLVESGGGLVQPGGSLRLSCVASGFTFSSFAMTWVRRPPGKGLEWVATITNGGVTSYRDSVKGRFTISRDNAKNTLYLEMTSLNPEDTAVYICANARRTGPRAPTDIGSYRGQGTLVTVSSGGGGSGGGGSGGGGSGGGGSGGGGSGGGGSGGGGSEVQLVESGGGLVQPGGSLRLSCVASGSIFRSVFSSSTMEWYRQPPGKKRELVARIAPGDGTNYGALYADSVKGRFTISRDDAKKTVDLQMNSLKPEDTGVYFCASGVAWGQGTLVTVSSGGGGSGGGSEVQLVESGGGVVQPGGSLRLSCAASGFTFRSFGMSWVRQAPGKGPEWVSSISGSGSDTLYADSVKGRFTISRDNSKNTLYLQMNSLRPEDTALYYCTIGGSLSRSSQGTLVTVSSA

What was measured:
[1] = biological target: T1, human GPC3 on tumor cell lines (HepG2, Huh-7, NCI-H661, MKN-45, NCI-H23, BxPC-3, NCI-H292) (human, UniProt P51654 25-554); assay: cell-based or functional assay
[2] = biological target: T1, human GPC3 on tumor cell lines (HepG2, …); assay: cell-based or functional assay; remark: listed apart in the source

| Binder | IC50 (M) BxPC-3, xCELLigence human TDC assay [1] [M] | IC50 (M) HepG2, xCELLigence human TDC assay [1] [M] | IC50 (M) Huh-7, xCELLigence human TDC assay [1] [M] | IC50 (M) NCI-H23, xCELLigence human TDC assay [1] [M] | IC50 (M) NCI-H661, xCELLigence human TDC assay [1] [M] | HepG2 on Incucyte IC50 [2] [pM] | HepG2 on Incucyte Max % killing [2] [%] | Huh7 on xCELLigence IC50 [2] [pM] | Huh7 on xCELLigence Max % killing [2] [%] |
| --- | --- | --- | --- | --- | --- | --- | --- | --- | --- |
| B1 | > 1e-07 | 1.03e-10 | 1.37e-10 | > 1e-07 | 1e-10 | – | – | – | – |
| B2 | > 1e-07 | 1.11e-10 | 1.58e-10 | > 1e-07 | 2.59e-10 | – | – | – | – |
| B3 | – | – | – | – | – | 2920 | 76 | 6130 | 66 |
| B4 | – | – | – | – | – | 319 | 97 | 186 | 103 |
